Where a chain is given by its changes, count along the chain named. Names may count otherwise. “Also recorded” adds a separate entry of the source.

Series [1] relates to endogenous NIS expressing organs (thyroid and stomach) and heterologous NIS expressing tumor cells. Put plainly: Dual isotope SPECT/CT imaging of nude mice with BXPC-3-hNIS tumors. To be noted: four hours after i.p. administration of 250 μCi each. The procedure:
FIG. 6. SPECT/CT dual isotope imaging of nude mice implanted with SQ BXPX-3-hNIS tumors. Animals were injected i.p with 250 μCi ^125I and 250 μCi ^99mTc and imaged four hours later. Images were processed using Vivo Quant software. The scale was adjusted manually to get minimal yellow in the tissues.
The stomach and thyroid signals were subtract from the SPECT dataset (FIG. 5). In this experiment, nude female mice (5-week of age) were injected with 3×10^6 BXPC-3-hNIS cells. When tumors reached a diameter of 1 cm, mice were injected I.P. with ^125I sodium iodide (250 μCi) and/or ^99mTc-pertechneate (250 μCi). Four hours post isotope administration, SPECT/CT data were acquired with U-SPECT-II (MiLabs). […] Radioiodide thyroid signal subtraction was performed by normalizing the ^125I SPECT data to thyroid tissue on the ^99mTc SPECT data using the image arithmetic tools available in PMOD image fusion software. This was performed in three steps by (1) calculating the normalization factor (i.e., the inverse ratio between the maximum voxel value corresponding to the thyroid tissue on the ^125I SPECT and the maximum voxel value corresponding to the thyroid tissue on the ^99mTc SPECT data set), (2) multiplying each voxel in the ^125I SPECT dataset by this normalization factor, and (3) subtracting the normalized ^125I SPECT dataset from ^99mTc SPECT data set to generate a thyroid subtraction SPECT dataset (FIG. 5C). Similarly, ^99mTc stomach signal subtraction was performed by (1) calculating the normalization factor which in this case is the inverse ratio of the maximum voxel value corresponding to the stomach tissue on the ^99mTc SPECT to the maximum voxel value corresponding to the stomach tissue in the ^125I SPECT data set, (2) multiplying each voxel in the ^99mTc SPECT dataset by this normalization factor, and (3) subtracting the normalized ^99mTc SPECT dataset from ^125I SPECT data set to generate a stomach subtraction SPECT dataset (FIG. 5B).

The test system of series [2] is stomach signal from NIS polypeptide-mediated uptake of radioisotopes. To be noted: mouse fed by gavage, then imaged; NIS transduced liver.
From the text: FIG. 2B is a photograph of the same mouse fed oral contrast agent.
A further series has as its system NIS expressing cells. To be noted: cited from earlier work.
The next series concerns Mel624 cells. Put plainly: Radiotracer uptake assay in Mel624 cells stably expressing NIS polypeptides. To be noted: for Uptake of pertechnetate (Technetium-99m) / Uptake of radioiodide (Iodine-125): Mel624 cells expressing the NIS polypeptide, 1 hour at 37° C., +/- 300 μM KClO4. The series is classed as cell-based. Here is the method: Mel624 cells stably expressing a wild-type human NIS polypeptide (Mel-NIS) or one of two mutant NIS polypeptides (Mel-NIS-93E or Mel-NIS-93Q) were plated in 96-well plates at a density that would lead them to confluency on the day of the uptake assay. 1×Hank's balanced salt solution with calcium, magnesium (HBSS) (Cellgro) and 1 mM HEPES was adjusted to pH 7.3 using KOH (HBBS-HEPES) on the day of the assay. Culture medium was removed from the cells, and 150 μL of HBSS-HEPES+/−300 μM KClO4 was added to the wells. The cells were incubated for 10 minutes at room temperature prior to the addition of radiotracer. Radiotracers, ^125I and ^99mTc, were diluted in HBSS-HEPES to about 70,000 to 100,000 CPM/25 μL (CPM, counts per minute). 25 μL of radiotracer was added to the cells in HBSS-HEPES+/−KClO4, and the cells were incubated at 37° C. for 1 hour. The cells were then washed twice with cold HBSS-HEPES buffer and lysed to release the intracellular radiotracer by adding 200 μL 1M NaOH. Lysates were transferred to strip tubes and quantified using a gamma counter.

A further series relates to Hela-YFP-IS cells. Put plainly: Non-radioactive YFP-H148Q/I152L in vitro uptake assay. Format: cell-based. The source says:
FIG. 11 contains graphs plotting the relative fluorescence Hela-YFP-IS cells expressing no NIS (i) or the indicated mutant NIS (ii-viii) after treatment with I^−, ReO4^−, BF4^−, and ClO4^−. These graphs show the concentration dependence of I^−, ReO4^−, BF4^−, and ClO4^− induced changes in YFP-H148Q/I152L fluorescence in Hela-YFP-IS cells expressing the indicated NIS mutants.
Using an anti-HA-tag-Alexa-Fluor-647 monoclonal antibody, cells expressing the NIS mutants on the cell surface were labeled and quantified using flow cytometry. […] A non-radioactive YFP-H148Q/I152L in vitro uptake assay was used to monitor uptake of NIS substrates: […], […], BF4^−, and ClO4^−. The NIS mutants were co-expressed with YFP-H148Q/I152L, which decreased in fluorescence following an interaction with halides. […] This was particularly so at the lowest substrate concentrations, which are of clinical relevance as radiotracers used for imaging are administered to animals and humans in trace amounts. At 1-5 μM concentrations of substrate, NIS-Q72N transported less iodide but more ClO4^− into the cells.

Setting [3] is: 1-5 μM concentrations of substrate, YFP-H148Q/I152L fluorescence.

`[O]=[99Tc](=[O])(=[O])[O-]` [^99mTc, ^99mTc-pertechneate]: in series [1], the “Accumulation in BXPC-3-hNIS tumor cells” value is recorded as “accumulate both isotopes to similar concentrations” and the “Organ that preferentially accumulates the isotope” value is given as “stomach preferentially accumulates”.

For the molecule `[125I-].[Na+]` [^125I, ^125I sodium iodide], in series [1], the “Accumulation in BXPC-3-hNIS tumor cells” value is recorded as “accumulate both isotopes to similar concentrations” and the “Organ that preferentially accumulates the isotope” value was “thyroid preferentially accumulates”.

For `O=S(=O)([O-])[O-].[Ba+2]` [barium sulfate], the “Isotope signals from the stomach” value in series [2] is “reduced isotope signals from the stomach”.

Regarding `[O-][Cl+3]([O-])([O-])O` [perchlorate], in the series on NIS expressing cells, the “Efficiency of concentration in NIS expressing cells compared to iodide anions (less efficiently)” value is reported as 10 fold.

B1: NIS-93E: mutant human sodium iodide symporter polypeptide, human NIS-93E (SEQ ID NO:1) (protein, listed as Homo sapiens)
chain: MEAVETGERPTFGAWDYGVFALMLLVSTGIGLWVGLARGGQRSAEDFFTGGRRLAALPVGLSLSASFMSAVQVLGVPSEAYRYGLKFLWMCLEQLLNSVLTALLFMPVFYRLGLTSTYEYLEMRFSRAVRLCGTLQYIVATMLYTGIVIYAPALILNQVTGLDIWASLLSTGIICTFYTAVGGMKAVVWTDVFQVVVMLSGFWVVLARGVMLVGGPRQVLTLAQNHSRINLMDFNPDPRSRYTFWTFVVGGTLVWLSMYGVNQAQVQRYVACRTEKQAKLALLINQVGLFLIVSSAACCGIVMFVFYTDCDPLLLGRISAPDQYMPLLVLDIFEDLPGVPGLFLACAYSGTLSTASTSINAMAAVTVEDLIKPRLRSLAPRKLVIISKGLSLIYGSACLTVAALSSLLGGGVLQGSFTVMGVISGPLLGAFILGMFLPACNTPGVLAGLGAGLALSLWVALGATLYPPSEQTMRVLPSSAARCVALSVNASGLLDPALLPANDSSRAPSSGMDASRPALADSFYAISYLYYGALGTLTTVLCGALISCLTGPTKRSTLAPGLLWWDLARQTASVAPKEEVAILDDNLVKGPEELPTGNKKPPGFLPTNEDRLFFLGQKELEGAGSWTPCVGHDGGRDQQETNL
As to B1, in the series on Mel624 cells, the “Efficiency of concentrating iodide relative to TcO4” value is listed as “concentrate iodide with greater efficiency than TcO4”, the “Uptake of pertechnetate (Technetium-99m)” value is listed as “minimal or no uptake of pertechnetate; also recorded: not pertechnetate” and the “Uptake of radioiodide (Iodine-125)” value is recorded as “can uptake radioiodide; also recorded: capable of up-taking radioiodide”. For the same molecule, in the series on Mel624 cells (FIGS. 1A and 1B), the “Concentration of Iodine-125 uptake in tumor cells as compared to non-mutated NIS (NIS WT)” value is on record as “decrease the concentration of Iodine-125 uptake”. For the same molecule, in the series with Mel624 cells (listed as NIS-G93E), the “Uptake of pertechnetate (Technetium-99m)” value was “not Technetium-99m” and the “Uptake of radioiodide (Iodine-125)” value is “transport selectively Iodine-125; also recorded: selectively transports Iodine-125”.

B2: wild-type human NIS polypeptide: wild-type human sodium iodide symporter polypeptide (protein, UniProt Q92911 1-643, looked up)
Sodium/iodide cotransporter: B1 chain with E93G
On to B2, for which, in the series with Mel624 cells, the “Uptake of pertechnetate (Technetium-99m)” value is listed as “Substantial uptake” and the “Uptake of radioiodide (Iodine-125)” value is “Substantial uptake”.

B3: NIS-Q72N: human NIS with Q72 mutated to N, N-terminal HA-tag (protein, UniProt Q92911 1-643, looked up, variant Q72N)
Sodium/iodide cotransporter: B1 chain with Q72N, E93G
modifications: N-terminal HA tag
Turning to B3, in the series on Hela-YFP-IS cells (setting [3]), the “ClO4- transported into the cells compared to wild-type NIS” value is on record as “more ClO4^−” and the “Iodide transported into the cells compared to wild-type NIS” value is given as “less iodide”. The “Substrate transport profile compared to wild-type NIS” value with Hela-YFP-IS cells (I-, ReO4-, BF4-, ClO4-, FIGS. 11 and 12) is “altered substrate transport profile”.
